According to a protein production outcome set (Wang et al. 2014):

Test: label from the status in PepcDB records

| Sequence | protein production |
| --- | --- |
| MLIWWRGKFRRADEISLDFSLFEKSLQGAVYETLRTYSRAPFAAYKHYTRLKRSADFFNLPLSLSFDEFTKVLKAGADEFKQEVRIKVYLFPDSGEVLFVFSPLNIPDLETGVEVKISNVRRIPDLSTPPALKITGRTDIVLARREIVDCYDVILLGLNGQVCEGSFSNVFLVKEGKLITPSLDSGILDGITRENVIKLAKSLEIPVEERVVWVWELFEADEMFLTHTSAGVVPVRRLNEHSFFEEEPGPVTATLMENFEPFVLNLEENWVGI | not failed |
| MEKVLTDLDRVNIAKQEYELGSQLDTLVKIMSQDKVLPIGKVAHVQDGGKETGEQIYTITPNGTLDKPEDVKEVTVLFKGSTAPFGGDDWKTDWFKNDIPIASKLLLKKFGSQSVSHKQGTKQLEQSAHLLKEVMNKYPNAKISVYGHSLGSMNAQYAIAELDDNQIYRVQGAWIYNGPNLYSILTDKQKEQVDKIKGVVNNYVDSKDKIGIGYPKEGSDNAVGIVKIVDSKAVSGGSWVANFTNQHIWGGYQYNPDGSLKLAEDKFAYKENYSVVHTNVNQRMHAIKAKLSSFKSTGKEVSKNQAIFLDSQQAKVISSGLVTISKEAVEEVKKVEQKAVAKAEELYQSLKVAPTGVTELSPQELEEAYAQSGVSYASIVGEAQTFFSNKTQAAESISHAYVELENQINKGVEAMLRQDSNLSGEFKQWH | failed |
| MSLGIIRSILDTDLYKFTTGYAYAKLFPRAYGEFRFIDRNRQGFTEEFAELVRGEIRAMAALSLTRDEKEFLQRELPYLPPIYIDFLDGFRFDPEEVTVSIDAQGHLDIRAQGLLYRVTLWETPILAVISELYYRFIGAKPDWKQVEEVTRSKGELMREHRTTFSIFGMRRRFSLEVEDRVTDILKQYAGESLFGTSNVHLAHKHGLRVSGTHPHEWIQFHGAIYGYKMANYVAMEDWINVYDGDLGTVLTDTYTTDVFMRNFSKKHAMLFTSLRHDSGDPEIFIEKAVRRYEELRVDPKIKYIIFSDSLTPQRAIEIQKLCAGRIKASFGIGTNLTNDVGGGVEPLNIVMKLWKCKMTAKDDWHYCVKLSDVDGKHTGEPEEILLAMNTLGIKPKEGHHHHHH | not failed |
| MNIEIKDTLISEEQLQEKVKELALQIERDFEGEEIVVIAVLKGSFVFAADLIRHIKNDVTIDFISASSYGNQTETTGKVKLLKDIDVNITGKNVIVVEDIIDSGLTLHFLKDHFFMHKPKALKFCTLLDKPERRKVDLTAEYVGFQIPDEFIVGYGIDCAEKYRNLPFIASVVTEESYNLKSR | not failed |
| EKEDSKTRGEKIKSDFFELLSNHHLDSQSRWSKVKDKVESDPRYKAVDSSSMREDLFKQYIEKIAKNLDS | not failed |
| MNGASLCNSVLLHSHSLSRFQSSSSSCSVYLISSARTTSKYISISHRIRQSFREVIEKRSNGFCSFAVNKRRSGDSVIVESDDDDEEDDEDWGEFDGEDEGEEEEEDEGEFLPMDKMKKWLEKKPRGFGLGKKYETLIEDKLLDEIEQSWKAQAANLNKLKNDPLKSQQLKRDDNLLKGTGETQIGFRVRVTNLPKKKNVHRDLKVAFKEVSGVLSITPAVSGNKKTKDPVCKGFAHVDFKTEIDANRFVKQFTGQSLAFGKVIKQIKCQVVEFTSDDSVSKEVYLDNGFKVQKLPYSGLEGDSSADVVEEEVLLGSGEESDDSEEEVDEREVEDDERNHISSSIESSPIEMTRDSNTKLKFEKQVVKREIREHEELETPLVSFQVNKSEEAAAETHLDDEQSEEAVAETLLNDELDGDDEEEVAEDNLEPLNSSLSSSEENRVDRIRRLEQKLLGKEKLLGGGVGFDKPEAKPARVEGKKKEKKKKTKILVKGQAKKGTKIEIPGSSKR | failed |
| MVNQEKTLDVGFTHADFAALLDRYDYHFNPGDIVAGTVFSIEPKGALIDIGAKTAAYIPIQEMSINRIESPEEVLQPNETREFFILADENEEGQLTLSIRRIEYMRAWERVRQLQAEDATVRSQVFATNRGGALVRIEGLRGFIPGSHISTRVNKEELVGEELPLKFLEVDEERNRLVLSHRRALVERKMNKLEVGEVVVGTVRGIKPYGAFIDIGGVSGLLHISEISHDHIDTPHSVFNVNDQVKVMIIDLDAERGRISLSTKQLEPEPGDMVKNPQLVYEKAEEMAERYRQQLLQQQQQAAGETPEEGMEDIPEATEDDSPAPILQEALEHHHHHH | failed |
| MSEEFDESEIIFSDNYFPIRRREDGNEKENNRPVDFRENSERVWNKSSRRSKTTPLPSAVTAFSSSLPVNIPMRRYSTEEEYSDDDGGRKMIPPHLIVGRRMEGGQMAFSVCTGNGRTLKGRDLSRVRNSVLKLTGFLEA | failed |
| MLTQEQIDGIYEDLEHPFHFLWFDIGDAHGVSSGETDPASFEERKKDFLFLVEKLLDEGKLKLGNRKTELIIDGTTAELVEMFRKSFPASDEEMLEGLWLVTEDCPFVAVWLFEGENGEDYYGWC | failed |
| MLHGFLRLAAGAGRSLAVPAILLALGAPAQAGSLLEDCANDKLTPPNRIVACTNVLEDKAASASDQAVAYFNRANALDRNGEFDRAIADYDKAIAFNPKDAEAFNNRGLIWGHKKDFDRALADYDKAIELNPQIAIAYANRGLIWNDIKHDYVKAIADFDKAIRLDPENNGLYNLRGNAYLRKGDYDQAITSYSQAIFLDSQDPNQYFNLGLAWTTKGNLERAIADYSQAISLDANHAEAYRWRADAWVKRGDTDQALSDYTEAIRLDPGDAETFRNRARIWERKRDYDRAIADYDQAIAFAPNDAVAYNGRGWMWSLKHETDRAIVDYVKATAFDPNYVLAYDNLGLAWWDKGDLDRAISAFDQAVIVDPKYAPAYNDRGLARMDKNQYDLAIADYNMAILIDAGFVSAYRNRGNAWNRKGQFDYAIADFDQAIDHDPDDADAYVGRGRSRIYKADYTKAIADLDQAIRIGPKSARAHDTRGLAMVYKADYAGALADYDEAIRLSPKNASAYRNRGIASFYFGPPAKAQADFEQAAAIKPGDSYHAIWLDLARRRNGQPSILVDAKLDMTRWPAAVVRLLLGQQTPEATLLAADNPDATKKSEQLCEANFYVAEFQRLQHHDEEALRLYRLALGGCPRDFIEYTAATSALRVMGKAP | failed |
| AIASSAPAPGPAPASLTLWDEEDFQGRRCRLLSDCANVCERGGLPRVRSVKVENGVWVAFEYPDFQGQQFILEKGDYPRWSAWSGSSSHNSNQLLSFRPVLCANHNDSRVTLFEGDNFQGCKFDLVDDYPSLPSMGWASKDVGSLKVSSGAWVAYQYPGYRGYQYVLERDRHSGEFCTYGELGTQAHTGQLQSIRRVQH | failed |
| MKERIVGQSGELFCFGQMPVWKVENLPEVLLSGYSSEEGEWVCLNVLQGDVEVRAPDGSAEVWSADGGDCVFAPQQVFSVKPKTDDAEIRLSLYCAAADYFHKKYGMSATHSAVAAARDTVPAGRALDMGCGQGRNALFLGLKGFEVTAVDHNPAALANVAELAEAEGLNVRTLEYDLNAAALQGEFDYIVATVVLMFLMPQRVPDVIADMQAHTAAGGYNLIVSAMDTADFPCPMPFPFKFKEGELKDYYRDWELVEYKEELGSMHAKDENGNPIRFKFVTMLAKKPELEHHHHHH | failed |
| MADSAELKQMVMSLRVSELQVLLGYAGRNKHGRKHELLTKALHLLKAGCSPAVQMKIKELYRRRF | not failed |
| MQEKIHWITNLRGIACMMVVMIHSTSWYITHPHAITLLQWDIANLLNSASRVSVPLFFMISGYLFFGERSAQPRHFWRIGLCIAFYSALSLLYITLFTHINVELSLKNLLQKPVFYHLWFFFAITVIYLLSPLLQVKSTSSTMLLALMAILGILANPNMVSVKAAGIEWLPVNLYINGDTFYYVLYGVLGRAIGTLDTDKKWLTPLCAALFIAAVWVISRGTLHELRWRGDFGDTWYLYCGPAVFVCAVTLLTLAKNWLNARPLPGIACIARHSLGIYGFHALIVHALRASHLELSRWPLLDIVWIFSAALLGSLLLSGLVQRIDSRRLVS | failed |
| MRERTEARRRRIEEVLRRRQPDLTVLLENVHKPHNLSAILRTCDAVGVLEAHAVNPTGGVPTFNETSGGSHKWVYLRVHPDLHEAFRFLKERGFTVYATALREDARDFREVDYTKPTAVLFGAEKWGVSEEALALADGAIKIPMLGMVQSLNVSVAAAVILFEAQRQRLKAGLYDRPRLDPELYQKVLADWLRK | not failed |
